Measurements reported in patent US20240400708A1.
Residue numbers refer to the chain shown, from its start. In names and notes the source's numbering stands.

B1: feline IgG1a mutant ID No. 279: S252R, S434Y (antibody, part only; not given: Variable domains, not shown: another chain or arm of the molecule)
constant: ASTTAPSVFPLAPSCGTTSGATVALACLVLGYFPEPVTVSWNSGALTSGVHTFPAVLQASGLYSLSSMVTVPSSRWLSDTFTCNVAHPPSNTKVDKTVRKTDHPPGPKPCDCPKCPPPEMLGGPSIFIFPPKPKDTLRISRTPEVTCLVVDLGPDDSDVQITWFVDNTQVYTAKTSPREEQFNSTYRVVSVLPILHQDWLKGKEFKCKVNSKSLPSPIERTISKAKGQPHEPQVYVLPPAQEELSRNKVSVTCLIKSFHPPDIAVEWEITGQPEPENNYRTTPPQLDSDGTYFVYSKLSVDRSHWQRGNTYTCSVSHEALHYHHTQKSLTQSPGK
B2: feline IgG1a mutant ID No. 317: S428M, A431K, S434P (antibody, part only; not given: variable domains and light chain, not shown: another chain or arm of the molecule)
constant: B1 constant with R138S, S316M, A319K, Y322P
B3: feline IgG1a mutant ID No. 331: S428Y, D312P, S434Y, Q311M, L314K (antibody, part only; not given: Variable domains, not shown: another chain or arm of the molecule; small tags and cut ends)
constant: B1 constant with R138S, Q197M, D198P, L200K, S316Y
B4: feline IgG1a mutant ID No. 333: S428Y, D312P, S434Y, Q311Y, L314K (antibody, part only; not given: Variable domains, not shown: another chain or arm of the molecule; small tags and cut ends)
constant: B1 constant with R138S, Q197Y, D198P, L200K, S316Y
B5: feline IgG1a mutant ID No. 321: S428Y, D312P, S434Y, A431K (antibody, part only; not given: Variable domains, not shown: another chain or arm of the molecule)
constant: B1 constant with R138S, D198P, S316Y, A319K
B6: feline IgG1a mutant ID No. 349: S252Y, S428M, S434F, Q311K (antibody, part only; not given: variable domains and light chain, not shown: another chain or arm of the molecule)
constant: B1 constant with R138Y, Q197K, S316M, Y322F
B7: feline IgG1a mutant ID No. 318: S428M, A431K, S434Y (antibody, part only; not given: Variable domains, not shown: another chain or arm of the molecule)
constant: B1 constant with R138S, S316M, A319K
B8: feline IgG1a mutant ID No. 292: S252Y, S428Y, Q311W, D312P, L314K, S434Y (antibody, part only; not given: variable domains and light chain, not shown: another chain or arm of the molecule; small tags and cut ends)
constant: B1 constant with R138Y, Q197W, D198P, L200K, S316Y
B9: feline IgG1a mutant ID No. 294: S252Y, S428Y, Q311W, L314K (antibody, part only; not given: variable domains and light chain, not shown: another chain or arm of the molecule; small tags and cut ends)
constant: B1 constant with R138Y, Q197W, L200K, S316Y, Y322S
B10: feline IgG1a mutant ID No. 335: T250Q, S252H (antibody, part only; not given: Variable domains, not shown: another chain or arm of the molecule)
constant: B1 constant with T136Q, R138H, Y322S
B11: feline IgG1a mutant ID No. 346: S252Y, S428M, S434F, G402R (antibody, part only; not given: Variable domains, not shown: another chain or arm of the molecule)
constant: B1 constant with R138Y, G290R, S316M, Y322F
B12: feline IgG1a mutant ID No. 329: S428Y, D312P, S434Y, Q311H, L314K (antibody, part only; not given: Variable domains, not shown: another chain or arm of the molecule; small tags and cut ends)
constant: B1 constant with R138S, Q197H, D198P, L200K, S316Y
B13: feline IgG1a mutant ID No. 293: S252Y, S428Y, Q311W, D312P, S434Y (antibody, part only; not given: Variable domains, not shown: another chain or arm of the molecule; small tags and cut ends)
constant: B1 constant with R138Y, Q197W, D198P, S316Y
B14: feline IgG1a mutant ID No. 342: S252Y, S428M, S434F, D312P (antibody, part only; not given: Variable domains, not shown: another chain or arm of the molecule; small tags and cut ends)
constant: B1 constant with R138Y, D198P, S316M, Y322F
B15: feline IgG1a mutant ID No. 299: S428Y, Q311W, D312P, L314K, S434Y (antibody, part only; not given: variable domains and light chain, not shown: another chain or arm of the molecule)
constant: B1 constant with R138S, Q197W, D198P, L200K, S316Y
B16: feline IgG1a mutant ID No. 290: S252Y, S428Y, Q311W, D312P (antibody, part only; not given: Variable domains, not shown: another chain or arm of the molecule; small tags and cut ends)
constant: B1 constant with R138Y, Q197W, D198P, S316Y, Y322S
B17: feline IgG1a mutant ID No. 326: S428Y, D312P, S434Y, P247V, S252H (antibody, part only; not given: Variable domains, not shown: another chain or arm of the molecule; small tags and cut ends)
constant: B1 constant with P133V, R138H, D198P, S316Y
B18: feline IgG1a mutant ID No. 337: S252Y, S428M, S434F, D312H (antibody, part only; not given: Variable domains, not shown: another chain or arm of the molecule)
constant: B1 constant with R138Y, D198H, S316M, Y322F
B19: feline IgG1a mutant ID No. 301: S428Y, Q311W, L314K, S434Y (antibody, part only; not given: Variable domains, not shown: another chain or arm of the molecule)
constant: B1 constant with R138S, Q197W, L200K, S316Y
B20: feline IgG1a mutant ID No. 288: S252Y, S428Y, D312P, S434Y (antibody, part only; not given: Variable domains, not shown: another chain or arm of the molecule)
constant: B1 constant with R138Y, D198P, S316Y
B21: feline IgG1a mutant ID No. 280: S252R, S434Y, Q311W (antibody, part only; not given: Variable domains, not shown: another chain or arm of the molecule)
constant: B1 constant with Q197W
B22: feline IgG1a mutant ID No. 295: S252Y, S428Y, Q311W, L314K, S434Y (antibody, part only; not given: Variable domains, not shown: another chain or arm of the molecule; small tags and cut ends)
constant: B1 constant with R138Y, Q197W, L200K, S316Y
B23: feline IgG1a mutant ID No. 303: A431K, S434Y (antibody, part only; not given: variable domains and light chain, not shown: another chain or arm of the molecule)
constant: B1 constant with R138S, A319K
B24: feline IgG1a mutant ID No. 327: S428Y, D312P, S434Y, P247V, T250Q (antibody, part only; not given: Variable domains, not shown: another chain or arm of the molecule; small tags and cut ends)
constant: B1 constant with P133V, T136Q, R138S, D198P, S316Y
B25: feline IgG1a mutant ID No. 324: S428Y, D312P, S434Y, D399M, T403R (antibody, part only; not given: Variable domains, not shown: another chain or arm of the molecule)
constant: B1 constant with R138S, D198P, D287M, T291R, S316Y
B26: feline IgG1a mutant ID No. 289: S252Y, S428Y, L314K, S434Y (antibody, part only; not given: Variable domains, not shown: another chain or arm of the molecule)
constant: B1 constant with R138Y, L200K, S316Y

These binders were tested against feline FcRn complex (FcRn-α subunit and β-microglobulin) (feline) (assay: SPR (Biacore), FcRn on SA chip, pH 6).

Going from B1 to B2, the Kd rises from 10.8 nM to 22.2 nM (2.1-fold).

Compared with B3, B4 is 3.5-fold higher in Kd: 0.259 nM for the first, 0.908 nM for the second.

Compared with B5, B6 is 2.8-fold lower in Kd: 0.0539 nM for the first, 0.0192 nM for the second. The second binds more tightly here.

Compared with B7, B8 is 30-fold higher in Kd: 0.135 nM for the first, 4.01 nM for the second. The first binds more tightly here.

First: B9
Second: B10
The Kd of the first is 12-fold lower: 0.692 nM for the first, 8.02 nM for the second.

Compared with B11, B12 is 8.4-fold higher in Kd: 0.0404 nM for the first, 0.338 nM for the second. The first binds more tightly here.

Compared with B13, B14 is 170-fold lower in Kd: 1.07 nM for the first, 0.0063 nM for the second. The second binds more tightly here.

Compared with B15, B16 is 2.6-fold higher in Kd: 1.17 nM for the first, 3.08 nM for the second. The first binds more tightly here.

First: B17
Second: B18
The Kd of the first is 2.3-fold higher: 0.0627 nM for the first, 0.0272 nM for the second.

Compared with B19, B20 is 41-fold lower in Kd: 1.11 nM for the first, 0.0268 nM for the second. The second binds more tightly here.

First: B21
Second: B22
The Kd of the first is 4.3-fold higher: 2.87 nM for the first, 0.675 nM for the second.

Going from B23 to B24, the Kd falls from 1.33 nM to 0.221 nM (6-fold). The second binds more tightly here.

First: B25
Second: B26
The Kd of the first is 7.2-fold lower: 0.113 nM for the first, 0.808 nM for the second.

Each binder was assayed against feline FcRn complex (FcRn-α subunit and β-microglobulin) (feline) (assay: SPR (Biacore), FcRn on SA chip, pH 7.4).

Going from B1 to B2, the Kd falls from 12100 nM to 15.6 nM (780-fold).

Compared with B3, B4 is 1.8-fold higher in Kd: 14.6 nM for the first, 25.9 nM for the second.

Going from B5 to B6, the Kd falls from 10.2 nM to 4.78 nM (2.1-fold).

Going from B7 to B8, the Kd rises from 25.3 nM to 2720 nM (110-fold). The first binds more tightly here.

Compared with B9, B10 is 2.9-fold higher in Kd: 12.8 nM for the first, 36.9 nM for the second. The first binds more tightly here.

Compared with B11, B12 is 1.9-fold higher in Kd: 9.95 nM for the first, 18.9 nM for the second.

First: B13
Second: B14
The Kd of the first is 890-fold higher: 2930 nM for the first, 3.29 nM for the second.

Compared with B15, B16 is 3.2-fold higher in Kd: 79.6 nM for the first, 254 nM for the second. The first binds more tightly here.

Compared with B17, B18 is 1.5-fold lower in Kd: 13.7 nM for the first, 8.96 nM for the second. The second binds more tightly here.

Compared with B19, B20 is 150-fold lower in Kd: 494 nM for the first, 3.22 nM for the second.

Going from B21 to B22, the Kd falls from 4400 nM to 201 nM (22-fold). The second binds more tightly here.

B23 and B24 are within 1.5-fold of each other in Kd: 26.3 nM for the first, 27.4 nM for the second.

Going from B25 to B26, the Kd rises from 21.6 nM to 132 nM (6.1-fold). The first binds more tightly here.
